Results on 2 molecules are retold here after article doi:10.1101/343046 (bioRxiv, 2018).

In the experiment the target is T1, GST-KBP (Kinesin-Binding Protein) (human, UniProt Q96EK5 1-621).
T1 sequence (looked up): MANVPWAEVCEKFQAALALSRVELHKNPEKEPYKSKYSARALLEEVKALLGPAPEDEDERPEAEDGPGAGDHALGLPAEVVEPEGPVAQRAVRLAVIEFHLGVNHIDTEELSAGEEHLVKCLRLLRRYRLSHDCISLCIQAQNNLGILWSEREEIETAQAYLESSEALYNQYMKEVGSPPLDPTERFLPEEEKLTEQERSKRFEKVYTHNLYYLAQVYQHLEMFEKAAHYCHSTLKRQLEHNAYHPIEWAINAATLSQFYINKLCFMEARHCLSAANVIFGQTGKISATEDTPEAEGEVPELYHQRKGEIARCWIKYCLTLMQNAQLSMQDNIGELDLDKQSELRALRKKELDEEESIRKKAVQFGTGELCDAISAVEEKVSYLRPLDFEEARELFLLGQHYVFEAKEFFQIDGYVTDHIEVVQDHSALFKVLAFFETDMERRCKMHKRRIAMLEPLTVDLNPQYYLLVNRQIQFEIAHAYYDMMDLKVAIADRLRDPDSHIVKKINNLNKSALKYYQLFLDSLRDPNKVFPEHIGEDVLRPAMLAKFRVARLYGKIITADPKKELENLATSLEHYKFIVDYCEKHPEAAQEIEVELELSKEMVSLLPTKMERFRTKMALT
The experiment is described as follows: pull-down.

B1: His6-KIF15-N420 (domain or fragment, human, UniProt Q9NS87 1-420, looked up)
chain: MAPGCKTELRSVTNGQSNQPSNEGDAIKVFVRIRPPAERSGSADGEQNLCLSVLSSTSLRLHSNPEPKTFTFDHVADVDTTQESVFATVAKSIVESCMSGYNGTIFAYGQTGSGKTFTMMGPSESDNFSHNLRGVIPRSFEYLFSLIDREKEKAGAGKSFLCKCSFIEIYNEQIYDLLDSASAGLYLREHIKKGVFVVGAVEQVVTSAAEAYQVLSGGWRNRRVASTSMNRESSRSHAVFTITIESMEKSNEIVNIRTSLLNLVDLAGSERQKDTHAEGMRLKEAGNINRSLSCLGQVITALVDVGNGKQRHVCYRDSKLTFLLRDSLGGNAKTAIIANVHPGSRCFGETLSTLNFAQRAKLIKNKAVVNEDTQGNVSQLQAEVKRLKEQLAELASGQTPPESFLTRDKKKTNYMEYFQE
Regarding B1, the binding result was “binds”.

B2: KIF18A-N480-GFP-His6 (domain or fragment, human, UniProt Q8NI77 1-480, looked up)
chain: MSVTEEDLCHHMKVVVRVRPENTKEKAAGFHKVVHVVDKHILVFDPKQEEVSFFHGKKTTNQNVIKKQNKDLKFVFDAVFDETSTQSEVFEHTTKPILRSFLNGYNCTVLAYGATGAGKTHTMLGSADEPGVMYLTMLHLYKCMDEIKEEKICSTAVSYLEVYNEQIRDLLVNSGPLAVREDTQKGVVVHGLTLHQPKSSEEILHLLDNGNKNRTQHPTDMNATSSRSHAVFQIYLRQQDKTASINQNVRIAKMSLIDLAGSERASTSGAKGTRFVEGTNINRSLLALGNVINALADSKRKNQHIPYRNSKLTRLLKDSLGGNCQTIMIAAVSPSSVFYDDTYNTLKYANRAKDIKSSLKSNVLNVNNHITQYVKICNEQKAEILLLKEKLKAYEEQKAFTNENDQAKLMISNPQEKEIERFQEILNCLFQNREEIRQEYLKLEMLLKENELKSFYQQQCHKQIEMMCSEDKVEKATGKR
For B2, the binding result is listed as “binds”.
